Assay results published in patent US20200190204A1.

Biological target: hBAFF-R-GFP fusion protein on mouse fibroblast L cells (clone D2C) (human) (UniProt Q96RJ3)
Experiment: cell ELISA of hybridoma supernatant, anti-mouse IgG-HRP; same clone on parental L cell: 0.102

B1: mouse mAb Clone 55 (hybridoma) (antibody, V domains shown)
VH: QVTLKESGPGILKPSQTLSLTCSFSGFSLSTSGMGVGWIRQPSGKGLEWLAHIWWDDDKYYNSSLKSHLTISKDTSRNQVFLKITSVDTADTATYYCARSFGYGLDYWGQGTTLTVSS
VL: DIQMTQTTSSLSASLGDRVTISCSASQDISNYLNWYQQKPDGTVKLLIYYTSSLHSGVPSRFSGSGSGTDYSLTISSLEPEDIATYYCHQFSELPWTFGGGTKLEIKR
For B1, the OD 450 nm on (h)BAFF-R-expressing cells was 1.07 OD 450 nm.
